Results published in patent US20130190477A1 (REGENTS OF THE UNIVERSITY OF COLORADO, published 2013).

Tests used:
[1] = biological target: T1, EBV gp350, truncated construct comprising residues 1-470 of the wild-type protein, C-terminal polyhistidine … (Epstein-Barr virus, UniProt P03200 1-470); test: ITC, 20 °C, 1/3x PBS, single site binding model
T1 construct: range 1-470; Produced in Sf9 insect cells by baculovirus; The methods say truncated 1-470, yet the results and discussion call the titrated ligand 'full-length'; also called Epstein-Barr virus glycoprotein gp350/220; not shown: C-terminal polyhistidine tag
T1 sequence: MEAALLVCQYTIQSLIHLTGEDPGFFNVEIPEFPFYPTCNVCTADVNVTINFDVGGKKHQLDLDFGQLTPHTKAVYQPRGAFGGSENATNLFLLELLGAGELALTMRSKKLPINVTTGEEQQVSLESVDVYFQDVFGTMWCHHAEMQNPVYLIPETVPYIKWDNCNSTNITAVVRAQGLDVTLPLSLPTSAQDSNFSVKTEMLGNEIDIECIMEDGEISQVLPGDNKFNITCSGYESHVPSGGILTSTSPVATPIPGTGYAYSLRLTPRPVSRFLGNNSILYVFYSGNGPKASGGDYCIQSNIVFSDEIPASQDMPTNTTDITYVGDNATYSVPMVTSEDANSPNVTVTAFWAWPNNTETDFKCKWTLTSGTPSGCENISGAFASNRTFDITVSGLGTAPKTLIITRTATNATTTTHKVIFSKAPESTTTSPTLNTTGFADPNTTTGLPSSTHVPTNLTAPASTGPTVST

[2] = biological target: T1, EBV gp350, truncated construct …; test: NMR titration, upper limit from slow exchange (min. shift difference about 60 Hz, diffusion-limited on rate assumed)
Human C3d [3] = biological target: T2, Human C3d (human, UniProt P01024 996-1303, limits assumed); test: ITC, 20 °C, 1/3x PBS, two site binding model (weak site)
T2 construct: domain: C3d; also called complement component 3 proteolytic fragment C3d
Method: (§1) ITC experiments were carried out on a Microcal VP-ITC (GE Healthcare, Piscataway, N.J.) housed in the Biophysics Core facility on the UCDSOM campus. […] Data was analyzed using the software provided by the manufacturer (Origin, version 7.0 MicroCal) using either single site or two site binding models (55).

Human C3d [4] = biological target: T2, Human C3d; test: ITC, 20 °C, 1/3x PBS, two site binding model (tight site)
Method: as §1

T2 sequence (P01024 996-1303 limits assumed): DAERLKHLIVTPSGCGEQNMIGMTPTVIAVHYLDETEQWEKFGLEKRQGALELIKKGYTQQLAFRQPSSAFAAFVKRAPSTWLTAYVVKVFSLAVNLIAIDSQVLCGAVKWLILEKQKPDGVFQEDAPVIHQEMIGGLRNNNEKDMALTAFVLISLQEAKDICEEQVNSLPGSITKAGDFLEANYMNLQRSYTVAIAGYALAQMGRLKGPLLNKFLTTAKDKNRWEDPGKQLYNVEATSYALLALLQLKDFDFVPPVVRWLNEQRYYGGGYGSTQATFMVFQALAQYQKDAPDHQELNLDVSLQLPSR

B1: Human CR2 SCR1-2 (short consensus repeat domains 1 and 2 of human complement receptor 2) (receptor)
chain: ISCGSPPPILNGRISYYSTPIAVGTVIRYSCSGTFRLIGEKSLLCITKDKVDGTWDKPAPKCEYFNKYSSCPEPIVPGGYKIRGSTPYRHGDSVTFACKTNFSMNGNKSVWCQANNMWGPTRLPTCVS
notes: The ITC paragraph says only 'CR2 SCR1-2', so it is not clear which preparation gave the ITC values; also called CR2/CD21 SCR1-2; SCR1-2 domains of CR2
Question: With B1 as the binder, how does the Kd [1] read?
Answer: The Kd was 14 nM.

Question: What about the Kd [2] of the same binder?
Answer: Its Kd is no more than 60000 nM.

Question: What about the Kd (Human C3d [3]) of the same binder?
Answer: The Kd was 160000 nM.

Question: And the Kd (Human C3d [4])?
Answer: The Kd was 130 nM.
